Experimental data: the supplement of paper PMC10065799, “High-throughput profiling of sequence recognition by tyrosine kinases and SH2 domains using bacterial peptide display” (eLife, 2023)

What was measured:
[1] = molecular target: c-Src SH2; assay: SH2 binding enrichment of the phosphorylated peptide, bacterial display (enrichment ratio); higher = better substrate or ligand; peptides without Tyr show the background
[2] = molecular target: SHP2-C SH2; assay: as above
[3] = molecular target: Grb2 SH2 (UniProt P62993); assay: as above
[4] = molecular target: FGFR1 (UniProt P11362); assay: phosphorylation enrichment, bacterial display (enrichment ratio); higher = better substrate or ligand; peptides without Tyr show the background
[5] = test system: Fer (mouse); assay: as above
[6] = test system: c-Abl (mouse); assay: as above
[7] = molecular target: Fyn (UniProt P06241); assay: as above
[8] = molecular target: Jak2 (UniProt O60674); assay: as above
[9] = molecular target: MERTK (UniProt Q12866); assay: as above
[10] = molecular target: FGFR3 (UniProt P22607); assay: as above
[11] = molecular target: EPHB2 (UniProt P29323); assay: as above
[12] = molecular target: Fes (UniProt P07332); assay: as above
[13] = test system: c-Src; assay: as above
[14] = test system: AncSZ; assay: as above
[15] = molecular target: EPHB1 (UniProt P54762); assay: as above
[16] = molecular target: Hck (UniProt P08631); assay: as above
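For SH2 binding enrichment of the phosphorylated peptide, bacterial display in this document: peptide library displayed on the E. coli surface as eCPX fusions, selected cells deep-sequenced, score is each peptide's frequency after selection divided by its frequency in the input.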
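For phosphorylation enrichment, bacterial display in this document: 11-residue human phosphosite peptides and single-mutation variants displayed on the E. coli surface, counted by deep sequencing, each peptide's frequency after selection divided by its frequency in the unselected input library; frequency after pTyr selection over input frequency; kinase dosed for 20-30% of maximal phosphorylation in three min.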

Chain of FGFR1 (P11362 whole entry, looked up): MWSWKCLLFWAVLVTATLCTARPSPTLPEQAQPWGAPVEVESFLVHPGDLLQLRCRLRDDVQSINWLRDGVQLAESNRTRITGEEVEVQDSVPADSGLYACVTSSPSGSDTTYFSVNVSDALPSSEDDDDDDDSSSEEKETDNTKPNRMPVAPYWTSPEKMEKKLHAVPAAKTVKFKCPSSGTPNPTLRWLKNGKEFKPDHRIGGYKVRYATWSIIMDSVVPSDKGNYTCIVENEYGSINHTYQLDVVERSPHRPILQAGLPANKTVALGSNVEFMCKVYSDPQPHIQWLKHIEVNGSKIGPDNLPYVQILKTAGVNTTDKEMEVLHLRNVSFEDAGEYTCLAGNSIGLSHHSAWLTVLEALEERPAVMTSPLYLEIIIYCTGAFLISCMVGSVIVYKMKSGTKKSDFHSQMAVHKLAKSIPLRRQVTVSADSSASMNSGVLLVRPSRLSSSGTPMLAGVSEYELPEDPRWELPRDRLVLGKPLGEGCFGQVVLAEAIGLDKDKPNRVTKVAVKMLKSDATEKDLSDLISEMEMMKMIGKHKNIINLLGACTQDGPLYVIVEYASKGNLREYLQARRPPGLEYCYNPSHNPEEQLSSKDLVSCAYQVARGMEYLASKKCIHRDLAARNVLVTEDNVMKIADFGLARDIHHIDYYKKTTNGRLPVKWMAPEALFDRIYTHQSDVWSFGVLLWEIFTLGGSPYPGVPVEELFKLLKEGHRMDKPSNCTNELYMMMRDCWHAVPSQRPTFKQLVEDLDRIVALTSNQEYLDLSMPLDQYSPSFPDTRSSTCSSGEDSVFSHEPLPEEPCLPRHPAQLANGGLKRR
Chain of EPHB1 (P54762 whole entry, looked up): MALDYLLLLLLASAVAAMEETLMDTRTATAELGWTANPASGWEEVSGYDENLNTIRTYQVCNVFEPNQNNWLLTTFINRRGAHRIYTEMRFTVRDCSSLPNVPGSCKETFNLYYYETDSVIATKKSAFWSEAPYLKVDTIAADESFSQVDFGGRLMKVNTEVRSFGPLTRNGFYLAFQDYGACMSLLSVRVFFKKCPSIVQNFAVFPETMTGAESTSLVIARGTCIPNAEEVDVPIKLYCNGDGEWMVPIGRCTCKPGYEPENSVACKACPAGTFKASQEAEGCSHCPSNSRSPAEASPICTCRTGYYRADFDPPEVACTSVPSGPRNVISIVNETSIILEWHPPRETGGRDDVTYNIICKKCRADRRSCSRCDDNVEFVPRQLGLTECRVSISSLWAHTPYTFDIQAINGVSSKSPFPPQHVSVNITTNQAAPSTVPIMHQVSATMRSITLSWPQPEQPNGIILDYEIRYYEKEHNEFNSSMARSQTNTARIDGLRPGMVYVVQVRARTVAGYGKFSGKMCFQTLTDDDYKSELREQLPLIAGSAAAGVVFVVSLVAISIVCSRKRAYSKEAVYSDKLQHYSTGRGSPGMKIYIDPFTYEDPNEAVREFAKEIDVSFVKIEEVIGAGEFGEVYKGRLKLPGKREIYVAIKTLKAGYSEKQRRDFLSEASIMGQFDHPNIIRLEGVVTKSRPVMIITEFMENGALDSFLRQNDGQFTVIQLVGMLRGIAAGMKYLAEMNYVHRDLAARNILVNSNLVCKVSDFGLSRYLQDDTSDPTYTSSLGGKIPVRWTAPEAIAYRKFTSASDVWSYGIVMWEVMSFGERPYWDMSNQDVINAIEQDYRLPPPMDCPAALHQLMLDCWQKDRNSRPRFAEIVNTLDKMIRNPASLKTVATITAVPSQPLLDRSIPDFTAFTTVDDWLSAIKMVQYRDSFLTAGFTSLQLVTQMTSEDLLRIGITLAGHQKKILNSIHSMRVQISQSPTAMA
Chain of Jak2 (O60674 whole entry, looked up): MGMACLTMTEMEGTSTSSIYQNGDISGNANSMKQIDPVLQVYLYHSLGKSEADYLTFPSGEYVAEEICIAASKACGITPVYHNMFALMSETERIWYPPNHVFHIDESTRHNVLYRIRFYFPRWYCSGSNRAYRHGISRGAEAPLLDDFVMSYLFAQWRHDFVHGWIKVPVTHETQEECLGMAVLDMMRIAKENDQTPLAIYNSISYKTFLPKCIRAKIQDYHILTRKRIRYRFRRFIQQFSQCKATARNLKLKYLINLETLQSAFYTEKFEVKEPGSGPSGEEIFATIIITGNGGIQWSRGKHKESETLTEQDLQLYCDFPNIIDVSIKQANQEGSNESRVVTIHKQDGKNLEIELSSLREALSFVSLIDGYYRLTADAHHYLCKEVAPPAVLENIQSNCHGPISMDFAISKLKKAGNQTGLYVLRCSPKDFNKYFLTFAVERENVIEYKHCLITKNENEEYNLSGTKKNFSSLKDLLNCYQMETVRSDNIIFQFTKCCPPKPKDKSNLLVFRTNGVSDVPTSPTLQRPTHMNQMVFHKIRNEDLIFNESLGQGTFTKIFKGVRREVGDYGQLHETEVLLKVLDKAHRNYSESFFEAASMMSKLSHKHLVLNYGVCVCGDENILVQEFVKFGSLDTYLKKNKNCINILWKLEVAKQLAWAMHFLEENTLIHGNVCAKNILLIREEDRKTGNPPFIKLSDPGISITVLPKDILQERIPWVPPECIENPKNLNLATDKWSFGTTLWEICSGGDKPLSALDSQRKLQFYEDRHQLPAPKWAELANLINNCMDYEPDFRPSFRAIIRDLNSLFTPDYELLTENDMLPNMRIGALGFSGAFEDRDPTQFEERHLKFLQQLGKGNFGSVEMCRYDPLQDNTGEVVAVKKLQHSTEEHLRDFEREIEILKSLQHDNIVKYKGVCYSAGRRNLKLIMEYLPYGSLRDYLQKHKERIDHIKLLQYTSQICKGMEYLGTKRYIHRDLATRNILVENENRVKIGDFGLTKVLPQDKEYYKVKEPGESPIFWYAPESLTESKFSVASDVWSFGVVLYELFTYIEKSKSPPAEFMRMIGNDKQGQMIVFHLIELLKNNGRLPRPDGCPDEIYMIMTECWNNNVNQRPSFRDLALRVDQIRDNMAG
Chain of FGFR3 (P22607 whole entry, looked up): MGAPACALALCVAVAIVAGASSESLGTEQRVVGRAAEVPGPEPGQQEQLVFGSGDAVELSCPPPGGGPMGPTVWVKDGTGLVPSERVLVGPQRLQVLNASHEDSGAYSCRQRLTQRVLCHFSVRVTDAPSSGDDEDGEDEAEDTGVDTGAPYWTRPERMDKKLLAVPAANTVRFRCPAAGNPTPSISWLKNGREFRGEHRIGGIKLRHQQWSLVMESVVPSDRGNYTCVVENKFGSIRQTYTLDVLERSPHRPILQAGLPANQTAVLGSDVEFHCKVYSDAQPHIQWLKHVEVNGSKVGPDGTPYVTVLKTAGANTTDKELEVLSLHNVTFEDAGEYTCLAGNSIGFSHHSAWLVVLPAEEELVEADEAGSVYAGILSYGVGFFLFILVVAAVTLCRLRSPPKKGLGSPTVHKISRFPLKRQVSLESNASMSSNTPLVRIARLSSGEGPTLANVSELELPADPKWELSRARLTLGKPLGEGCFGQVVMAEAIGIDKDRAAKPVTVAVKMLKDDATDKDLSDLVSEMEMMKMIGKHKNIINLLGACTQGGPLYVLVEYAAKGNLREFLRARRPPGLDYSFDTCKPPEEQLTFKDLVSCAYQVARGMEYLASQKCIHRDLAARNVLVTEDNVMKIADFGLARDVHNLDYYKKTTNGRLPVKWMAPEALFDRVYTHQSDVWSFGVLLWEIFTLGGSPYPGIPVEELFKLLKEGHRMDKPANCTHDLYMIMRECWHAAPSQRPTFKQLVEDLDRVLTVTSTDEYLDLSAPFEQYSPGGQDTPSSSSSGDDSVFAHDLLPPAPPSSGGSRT
Chain of MERTK (Q12866 whole entry, looked up): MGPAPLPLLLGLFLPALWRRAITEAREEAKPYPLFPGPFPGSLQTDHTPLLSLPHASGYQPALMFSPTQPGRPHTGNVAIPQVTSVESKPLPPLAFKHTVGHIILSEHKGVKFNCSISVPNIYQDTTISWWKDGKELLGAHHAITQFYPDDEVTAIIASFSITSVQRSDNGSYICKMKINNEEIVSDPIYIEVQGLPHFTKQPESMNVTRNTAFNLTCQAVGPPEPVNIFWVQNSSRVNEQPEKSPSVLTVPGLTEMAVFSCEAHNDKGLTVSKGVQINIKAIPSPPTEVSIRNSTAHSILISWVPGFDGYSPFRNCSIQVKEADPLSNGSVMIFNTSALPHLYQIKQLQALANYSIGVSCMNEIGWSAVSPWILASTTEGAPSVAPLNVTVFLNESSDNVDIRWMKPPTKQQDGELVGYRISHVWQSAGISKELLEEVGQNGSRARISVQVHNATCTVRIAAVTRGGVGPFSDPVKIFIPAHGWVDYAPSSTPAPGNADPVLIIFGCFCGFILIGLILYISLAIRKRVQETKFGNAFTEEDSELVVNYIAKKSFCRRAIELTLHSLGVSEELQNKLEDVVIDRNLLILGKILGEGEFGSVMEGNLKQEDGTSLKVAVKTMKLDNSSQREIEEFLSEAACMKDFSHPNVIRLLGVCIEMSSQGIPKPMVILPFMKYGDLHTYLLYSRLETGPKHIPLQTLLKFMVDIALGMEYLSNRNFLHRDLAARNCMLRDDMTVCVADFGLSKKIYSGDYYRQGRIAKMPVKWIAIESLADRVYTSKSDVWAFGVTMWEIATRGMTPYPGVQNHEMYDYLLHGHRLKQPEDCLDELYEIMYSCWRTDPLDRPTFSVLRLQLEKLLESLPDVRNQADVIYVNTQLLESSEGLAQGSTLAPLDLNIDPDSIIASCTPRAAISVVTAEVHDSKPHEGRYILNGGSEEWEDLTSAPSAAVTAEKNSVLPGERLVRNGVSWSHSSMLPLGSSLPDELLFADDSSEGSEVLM

Row | SH2 binding enrichment [1] | SH2 binding enrichment [2] | SH2 binding enrichment [3] | Sequence | phosphorylation enrichment [4] | phosphorylation enrichment [5] | phosphorylation enrichment [6] | phosphorylation enrichment [7] | phosphorylation enrichment [8] | phosphorylation enrichment [9] | phosphorylation enrichment [10] | phosphorylation enrichment [11] | phosphorylation enrichment [12] | phosphorylation enrichment [13] | phosphorylation enrichment [14] | phosphorylation enrichment [15] | phosphorylation enrichment [16]
1 | 1.83 | 1.31 | 1.17 | CTTIHYNYMRN [TP53_Y234_C238R] | 0.521 | 0.543 | 0.515 | 0.52 | 0.673 | 0.468 | 0.577 | 0.502 | 0.858 | 0.501 | 0.805 | 0.605 | 0.546
2 | 0.385 | 0.554 | 0.687 | AVSEGYKDFRA [CDA_Y79] | 0.519 | 0.341 | 0.602 | 0.441 | 0.553 | 0.449 | 0.542 | 0.456 | 0.689 | 0.338 | 0.602 | 0.386 | 0.452
3 | 0.714 | 0.762 | 0.941 | LIHTKCPQLLP [AHCY_Y143_Y143C] | 0.509 | 0.46 | 0.604 | 0.438 | 0.654 | 0.476 | 0.631 | 0.607 | 0.936 | 0.433 | 0.693 | 0.516 | 0.509
4 | 0.463 | 0.64 | 0.834 | TEYIQYVRRKN [MAX_Y73_M74V] | 0.528 | 0.454 | 0.875 | 0.615 | 0.548 | 0.647 | 0.488 | 0.425 | 0.573 | 0.657 | 0.712 | 0.465 | 0.589
5 | 1.6 | 1.22 | 6.36 | YGMQLYQNYMH [GRB14_Y347] | 0.888 | 8.99 | 1.2 | 4.92 | 0.727 | 3.75 | 0.909 | 12.4 | 1.02 | 3.97 | 1.11 | 9.11 | 4.84
6 | 0.522 | 0.506 | 0.632 | MDDPRYGMCPL [ZNF100_Y6] | 0.538 | 0.607 | 1.01 | 0.721 | 1.27 | 0.56 | 0.838 | 0.675 | 1.38 | 0.685 | 1.16 | 0.687 | 0.56
7 | 1.11 | 0.83 | 1.02 | YPLELYERVRM [PRKCG_Y312] | 0.481 | 3.71 | 0.632 | 0.518 | 1.25 | 0.432 | 0.622 | 1.18 | 1.25 | 0.699 | 1.19 | 2.02 | 1.65
8 | 0.616 | 0.896 | 0.982 | VFFFSYLLKNH [PTEN_Y180_YF] | 0.643 | 0.537 | 0.918 | 0.373 | 1.11 | 0.362 | 0.729 | 0.519 | 1.57 | 0.426 | 1.06 | 0.559 | 0.391
9 | 0.914 | 1.43 | 0.941 | FMRGMYFRMTD [PLA2G6_Y541_K545T_YF] | 0.496 | 0.506 | 0.715 | 0.434 | 1.39 | 0.438 | 0.663 | 0.563 | 1.2 | 0.481 | 1.09 | 0.698 | 0.513
10 | 1.07 | 0.895 | 0.855 | KKDGPYDVVVL [PARK7_Y67_E64D] | 0.449 | 3.37 | 0.629 | 0.562 | 0.608 | 0.589 | 0.602 | 0.53 | 0.9 | 0.569 | 0.906 | 0.991 | 0.507
11 | 0.499 | 0.534 | 0.71 | IDAICYYRMEN [NPHS2_Y194] | 3.09 | 0.642 | 0.927 | 0.66 | 3.15 | 0.844 | 3.18 | 0.721 | 1.49 | 1.71 | 1.99 | 0.786 | 0.8
12 | 0.876 | 0.789 | 1.11 | DENRFYTRAAS [RPS19_Y54_W52R] | 0.515 | 0.478 | 0.684 | 0.488 | 0.721 | 0.45 | 0.644 | 0.478 | 0.907 | 0.494 | 1.01 | 0.497 | 0.466
13 | 0.8 | 0.789 | 0.979 | SRDDDYETIAM [NPY1R_Y347] | 0.599 | 1.11 | 0.977 | 0.612 | 1.16 | 0.5 | 0.753 | 1.03 | 1.28 | 0.562 | 1.75 | 1.31 | 0.737
14 | 0.594 | 0.915 | 0.897 | RLDPVYFVAPA [LAMC2_Y250] | 6.89 | 0.523 | 1.82 | 11.5 | 1.73 | 5.95 | 5.76 | 4.85 | 0.787 | 7.69 | 1.46 | 5.28 | 8.92
15 | 0.738 | 0.864 | 0.902 | VFDHIYTTQSD [RET_Y928_L923V] | 0.55 | 0.443 | 0.44 | 2.12 | 0.671 | 0.579 | 0.682 | 0.467 | 0.871 | 2.41 | 0.978 | 0.458 | 1.14
16 | 0.664 | 0.693 | 1.07 | HEPKGYNANFC [TGFB2_Y341] | 0.647 | 0.581 | 0.847 | 0.558 | 0.737 | 0.559 | 0.596 | 0.719 | 0.92 | 0.595 | 0.808 | 0.656 | 0.553
17 | 0.543 | 0.733 | 0.746 | SVEELYAIPPD [PEAK1_Y797] | 5.57 | 5.23 | 9.56 | 2.88 | 1.78 | 9.81 | 5.64 | 13.6 | 1.59 | 3.28 | 3.92 | 3.15 | 4.24
